These are literature values, as cited in paper PMC4489423.

Series [1] concerns the target IL-10R2 ECD (Homo sapiens) (UniProt Q08334). Briefly: SPR. A general note: Surface plasmon resonance follows binding to a sensor surface in real time, without labels.
Series [2] deals with IL-10R1 ECD (Homo sapiens) (UniProt Q13651). Briefly: SPR.
Series [3] has as its target IL-10R2 ECD (Homo sapiens) (UniProt Q08334).

Where two headings read alike, the source gives them in different places.

IL-10, sequence (P22301 19-178): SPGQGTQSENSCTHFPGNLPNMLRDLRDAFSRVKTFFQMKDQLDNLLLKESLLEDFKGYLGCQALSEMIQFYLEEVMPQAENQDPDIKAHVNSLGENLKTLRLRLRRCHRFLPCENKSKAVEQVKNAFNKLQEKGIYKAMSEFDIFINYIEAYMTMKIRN
IL-10R2 ECD (Homo sapiens), sequence (Q08334 20-220): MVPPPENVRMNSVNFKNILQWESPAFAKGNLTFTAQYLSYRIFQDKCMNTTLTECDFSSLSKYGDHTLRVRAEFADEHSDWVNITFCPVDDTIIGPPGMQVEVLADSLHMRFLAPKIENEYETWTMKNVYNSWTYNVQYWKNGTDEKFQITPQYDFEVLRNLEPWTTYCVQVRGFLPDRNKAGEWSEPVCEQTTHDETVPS
IL-10/IL-10R1 complex, sequence (P22301 19-178): as the sequence (P22301 19-178) above
IL-10/IL-10R1 complex, sequence (Q13651 22-235, further chain): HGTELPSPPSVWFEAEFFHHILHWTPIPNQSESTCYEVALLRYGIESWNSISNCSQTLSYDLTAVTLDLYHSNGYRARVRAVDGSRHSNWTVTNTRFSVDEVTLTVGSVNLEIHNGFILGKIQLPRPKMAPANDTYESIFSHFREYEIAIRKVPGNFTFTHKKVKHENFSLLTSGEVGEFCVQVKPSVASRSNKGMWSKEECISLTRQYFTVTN
IL-10R1 ECD (Homo sapiens), sequence (Q13651 22-235): as the sequence (Q13651 22-235, further chain) above

As a reminder, the Kd is the constant that tells how readily two partners part at equilibrium. Consider IL-10 (from UniProt P22301), for which the Kd in series [1] was 3000 µM; in series [2], 0.00024 µM.
As for “IL-10/IL-10R1 complex (from UniProt P22301)”, the Kd in series [3] was 234 µM.
